Publication PMC4039371 (Molecular Systems Biology, 2013)

Molecular target: T1, GST-Cdc14 (S. cerevisiae, UniProt Q00684 1-551)
T1 sequence (looked up): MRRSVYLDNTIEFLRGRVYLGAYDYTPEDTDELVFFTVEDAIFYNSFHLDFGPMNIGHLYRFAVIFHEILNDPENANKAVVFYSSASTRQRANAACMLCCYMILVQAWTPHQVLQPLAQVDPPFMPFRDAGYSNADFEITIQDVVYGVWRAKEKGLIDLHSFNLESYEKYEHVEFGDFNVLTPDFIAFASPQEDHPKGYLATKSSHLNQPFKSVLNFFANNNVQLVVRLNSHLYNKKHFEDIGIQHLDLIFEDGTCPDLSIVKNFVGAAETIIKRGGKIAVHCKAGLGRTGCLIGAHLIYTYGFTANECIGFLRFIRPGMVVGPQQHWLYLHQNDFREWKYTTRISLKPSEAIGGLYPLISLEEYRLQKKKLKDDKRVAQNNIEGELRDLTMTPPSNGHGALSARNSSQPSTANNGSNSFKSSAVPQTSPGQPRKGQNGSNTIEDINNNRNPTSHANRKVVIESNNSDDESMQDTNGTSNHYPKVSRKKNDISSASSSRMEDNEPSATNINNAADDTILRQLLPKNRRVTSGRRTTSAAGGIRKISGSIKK
Experiment: pull-down

B1: recombinant Ubc9 protein (enzyme, S. cerevisiae, UniProt P50623 1-157, looked up)
chain: MSSLCLQRLQEERKKWRKDHPFGFYAKPVKKADGSMDLQKWEAGIPGKEGTNWAGGVYPITVEYPNEYPSKPPKVKFPAGFYHPNVYPSGTICLSILNEDQDWRPAITLKQIVLGVQDLLDSPNPNSPAQEPAWRSFSRNKAEYDKKVLLQAKQYSK
  binding result: binds
